B1: Syn5 RNAP: single subunit DNA-dependent RNA polymerase from marine cyanophage Syn5, amino acid sequence SEQ ID NO:23 (protein)
chain: MSFDLIARQLQRETEAAELARKRLQDARREANERSYASSNIESRKAIATFLDPIAQRIGERLFTLRRGTGAVDAAEVYKHLKNADHHHLALITMKTALDVLGKDPEPQIQQLTTAIGRNIQLELRLTYYAEENPELYKQASRFFHAGTGTRQKATVIKLKFNREGIEWDQWSRVTCHKVGQWLMLAMADVTGWIERATDRTSGGRKTKTRICYSREFLQHRDTILAAAEQLAFCQWPMLCPPIEWSNDHNGGYLSEQIRRVNPLIRKTGPLGTRKQGDIPLAMLNNLQGQAYKVNPEVLDIANHCYESNVTVGKFIRHAPLPVPPSPGEDCTEDQLTAYKRARREAEDFNAQISQKNWRTTEVMYVARKYADEASFWMPASFDYRGRVYFLNTALNPQGTDFDKALLYFAEEGPVNEWWLSFHVATTYGLDKETMVNRVQWARDNHELIDRIASDPVRHTEWHDADEPWCFLAACLEYKACVIDGTKQTSGLPIGIDATCSGLQHLAAMTRCGRTAALVNVTPTDKPADAYKTVAQASLKHLPKEQHEWITRKVTKRPVMCTPYGVTMSSARGYIRDQLVKDGHKEDLRSPGVLNGIVKAIFNEAIPEVIPGPVQVMAWLKRSAGQIIDRGDSTITWTTPSGFEVVQDLKKSKTYEVKTRIMGGARIKLQVGDGFTDEPDRDHHKSALAPNVVHSNDASLLHLTFAFWDKPFTVIHDCVLGRSCDMDQMGSDIRLHFAEMYKADVMQDWADQVGVELPVDLIKNTLDIDSVNQSLYFFS
modifications: Amino acid sequence of a cyanophage Syn5 RNAP

Columns and labels:
[1] = system: pET24-S5RNAP DNA; experiment: Catalytic efficiency at various ribonucleotide concentrations (filter-binding assay); format: biochemical; settings: for kcat/KmGTP / Km / kcat: GTP varied; for Km / KmGTP (results obtained with UTP): other NTPs 1 mM; for Km: 24° C., 5 min, read-out: apparent Km for GTP; for Km / kcat: 160 mM KCl for Syn5 RNAP, omitted for T7 RNAP; for kcat/KmGTP (results obtained with UTP) / kcatGTP (results obtained with UTP) / KmGTP (results obtained with UTP): UTP varied; for kcatGTP (results obtained with UTP) / KmGTP (results obtained with UTP): FIG. 7C/7D
Procedure: FIGS. 7A-7D depict a comparison of transcription efficiency of Syn5 and T7 RNAP at various ribonucleotide concentrations. A) Incorporation of NMP by Syn5 RNAP at various GTP concentrations. B) Incorporation of NMP by T7 RNAP at various GTP concentrations. C) Incorporation of NMP by Syn5 RNAP at various UTP concentrations. D) Incorporation of NMP by T7 RNAP at various UTP concentrations. Varied ribonucleotide concentrations were 7.8, 15.6, 31.3, 62.5, 125, 250, 500, 1000 µM while other NTPs were all at 1 mM, RNAP and template were both 20 nM, and the reaction time was 5 min at 24° C. 160 mM KCl was added for Syn5 RNAP reactions.
For the assays described in FIG. 7, reaction mixtures contained 40 mM Tris-HCl (pH 8.0), 6 mM MgCl2, 2 mM spermidine, 10 mM DTT, 20 nM Syn5 or T7 RNAP, 20 nM pET24-S5RNAP DNA, 1 mM ^3H-ATP (20 cpm/pmole), CTP, UTP (or GTP), and varying amounts of GTP (or UTP). 160 mM KCl was added for the Syn5 RNAP reactions. After various times the reactions were stopped by the addition of 20 mM EDTA. 4 µl of the mixtures were then loaded onto Whatman DE81 filter paper disks and the disks were washed to remove the unincorporated ^3H-ATP. The amount of insoluble ^3H-AMP, corresponding to nucleotides incorporated into newly synthesized RNA, was measured using a scintillation counter. The data were analyzed using Prism software.

[2] = system: linearized pET24-Syn5RNAP; experiment: Long run-off RNA synthesis and incorporation of modified nucleotides (yield by A260); format: biochemical
Procedure: FIGS. 12A-12B depict synthesis of long run-off product and the incorporation of modified nucleotides by Syn5 and T7 RNA polymerase. A) On the linearized plasmid template as shown in the schematic, the production of RNA by either RNA polymerase (10 nM) was analyzed on agarose gel as lane 2. […] Lane 3 and 4 show the same RNA synthesis when CTP was replaced by 5mCTP and UTP by Ps-UTP, respectively. B) Incorporation of UTP or Ps-UTP into small RNA by 22, 67, and 200 nM Syn5 and T7 RNA polymerase as analyzed by denaturing TBE polyacrylamide gel. Full-length run-off product and the N+1 product are shown.
The plasmid pET24 harboring the Syn5 RNAP gene (pET24-S5RNAP) that contains a single Syn5 promoter in the RNAP gene and a single T7 promoter preceding the gene was used for filter binding assay as shown in FIG. 8. pET24-S5RNAP was also linearized by EcoRI treatment and recovered by gel extraction to serve as template for FIG. 12A.
For the results shown in FIG. 12A, reaction mixtures (10 μl) contained 40 mM Tris-HCl pH 8.0, 6 mM MgCl2, 2 mM spermidine, 10 mM DTT, 600 µM[…]P, GTP, CTP (or 5Me-CTP), and UTP (or Pseudo-UTP), 1.5 U/µl RNaseOUT™ recombinant ribonuclease inhibitor, 0.04 U/µl yeast inorganic pyrophosphatase, 10 nM linearized (NotI treated) pET24-Syn5RNAP, 0 or 160 mM KCl, and 10 nM Syn5 or T7 RNAP. Syn5 reaction was carried out at RT and T7 at 37° C. RNA products were then purified with RNA Clean & Concentrator™-5 kit into a final solution of 10 µl and 5 µl each was mixed with 5 µl denaturing RNA loading dye. Samples were then heated at 65° C. for 5 min and loaded onto 1.6% TAE agarose gel. RNA products were visualized by ethidium bromide staining. For FIG. 12B, reaction mixtures (10 μl) containing 40 mM Tris-HCl pH 8.0, 6 mM MgCl2, 2 mM spermidine, 10 mM DTT, 200 µM[…]P, GTP and UTP (or Pseudo-UTP), 10 µM [[…]-^32P]CTP, 1.5 U/µl RNaseOUT™ recombinant ribonuclease inhibitor, 0.5 μM DNA templates S5P-tDNAR or T7P-tDNAR, and various amount of Syn5 or T7 RNAP were incubated at RT (for Syn5 RNAP) or 37° C. (for T7 RNAP) for 30 min before adding of one unit of DNase I to each reaction mixture and an additional incubation of 15 min at 37° C. Reactions were then terminated by the addition of 4 µl of loading dye containing 95% formamide and 40 mM EDTA. Samples were then heated at 90° C. for 1 min and 4 µl sample each was loaded onto 6% TBE-Urea denaturing polyacrylamide gel. After electrophoresis, gels were dried and analyzed using a Fuji BAS 1000 Bioimaging Analyzer.

[3] = CTP and UTP present, 1500 nt run-off transcript, optimal temperature of each RNAP

| Molecule | kcat/KmGTP [1] | Km [1] | kcat [1] | kcat/KmGTP (results obtained with UTP) [1] | kcatGTP (results obtained with UTP) [1] | KmGTP (results obtained with UTP) [1] | yield of RNA ([2]; 160 mM KCl) | yield of RNA, based on A260 [2, 3] | yield of RNA, based on A260 ([2]; CTP replaced by 5mCTP) | yield of RNA, based on A260 ([2]; UTP replaced by Ps-UTP) | yield relative to that in the absence of salt ([2]; 160 mM KCl) |
| --- | --- | --- | --- | --- | --- | --- | --- | --- | --- | --- | --- |
| T7 RNAP: RNA polymerase encoded by bacteriophage T7, from New England Biolabs [reference compound] | 90000 M⁻¹ s⁻¹ | 45.8 ± 9 µM | 4.1 s⁻¹ | 290000 M⁻¹ s⁻¹ | 6.8 s⁻¹ | 23.3 ± 5.5 µM | completely inhibited | 0.64 µg | 0.75 µg | 0.59 µg |  |
| B1 | 180000 M⁻¹ s⁻¹ | 13.9 ± 5.6 µM | 2.5 s⁻¹ | 380000 M⁻¹ s⁻¹ | 2.8 s⁻¹ | 7.4 ± 1.5 µM | 0.31 µg | 0.69 µg | 0.76 µg | 0.63 µg | about 50% |
